Results as given in the supplement of paper PMC11246515.
± gives the standard deviation of the averaged measurements.

Test: total protein half-life in vivo (active degradation + dilution); higher = more stable protein
[1] = E. coli NCM3722 delta-clpP delta-lon delta-hslV, growth: N-lim chemostat, doubling time 6 h
[2] = E. coli NCM3722 delta-clpP, growth: N-lim chemostat, doubling time 6 h
[3] = E. coli NCM3722 delta-hslV, growth: N-lim chemostat, doubling time 6 h
[4] = E. coli NCM3722 delta-lon, growth: N-lim chemostat, doubling time 6 h
[5] = E. coli NCM3722 delta-smpB, growth: N-lim chemostat, doubling time 6 h
[6] = wild type E. coli NCM3722, growth: C-lim chemostat, doubling time 3 h
[7] = wild type E. coli NCM3722, growth: C-lim chemostat, doubling time 6 h
[8] = wild type E. coli NCM3722, growth: C-lim chemostat, doubling time 12 h
[9] = wild type E. coli NCM3722, growth: N-lim chemostat, doubling time 6 h
[10] = wild type E. coli NCM3722, growth: N-lim chemostat, doubling time 12 h
[11] = wild type E. coli NCM3722, growth: P-lim chemostat, doubling time 6 h
[12] = wild type E. coli NCM3722, growth: P-lim chemostat, doubling time 12 h

Row | Sequence | total protein half-life in vivo [1] [h] | total protein half-life in vivo [2] [h] | total protein half-life in vivo [3] [h] | total protein half-life in vivo [4] [h] | total protein half-life in vivo [5] [h] | total protein half-life in vivo [6] [h] | total protein half-life in vivo [7] [h] | total protein half-life in vivo [8] [h] | total protein half-life in vivo [9] [h] | total protein half-life in vivo [10] [h] | total protein half-life in vivo [11] [h] | total protein half-life in vivo [12] [h]
1 | MSETAKKVIVGMSGGVDSSVSAWLLQQQGYQVEGLFMKNWEEDDGEEYCTAAADLADAQAVCDKLGIELHTVNFAAEYWDNVFELFLAEYKAGRTPNPDILCNKEIKFKAFLEFAAEDLGADYIATGHYVRRADVDGKSRLLRGLDSNKDQSYFLYTLSHEQIAQSLFPVGELEKPQVRKIAEDLGLVTAKKKDSTGICFIGERKFREFLGRYLPAQPGKIITVDGDEIGEHQGLMYHTLGQRKGLGIGGTKEGTEEPWYVVDKDVENNILVVAQGHEHPRLMSVGLIAQQLHWVDREPFTGTMRCTVKTRYRQTDIPCTVKALDDDRIEVIFDEPVAAVTPGQSAVFYNGEVCLGGGIIEQRLPLPV | 4.81 ± 0.17 | 4.73 ± 0.56 | 4.73 ± 0.06 | 5.33 ± 0.43 | 4.71 ± 0.32 | 2.89 ± 0.46 | 7.28 ± 0.86 | 10.4 ± 1.7 | 4.77 ± 0.39 | 8.691 ± 0.075 | 5.5 ± 0.061 | 12 ± 1.4
2 | MSEVEFSHEYWMRHALTLAKRAWDEREVPVGAVLVHNNRVIGEGWNRPIGRHDPTAHAEIMALRQGGLVMQNYRLIDATLYVTLEPCVMCAGAMIHSRIGRVVFGARDAKTGAAGSLMDVLHHPGMNHRVEITEGILADECAALLSDFFRMRRQEIKAQKKAQSSTD | 5.35 ± 0.49 | – | > 8 | 4.63 | – | – | – | – | – | – | > 8 | 10.7 ± 0.33
3 | MSFDIAKYPTLALVDSTQELRLLPKESLPKLCDELRRYLLDSVSRSSGHFASGLGTVELTVALHYVYNTPFDQLIWDVGHQAYPHKILTGRRDKIGTIRQKGGLHPFPWRGESEYDVLSVGHSSTSISAGIGIAVAAEKEGKNRRTVCVIGDGAITAGMAFEAMNHAGDIRPDMLVILNDNEMSISENVGALNNHLAQLLSGKLYSSLREGGKKVFSGVPPIKELLKRTEEHIKGMVVPGTLFEELGFNYIGPVDGHDVLGLITTLKNMRDLKGPQFLHIMTKKGRGYEPAEKDPITFHAVPKFDPSSGCLPKSSGGLPSYSKIFGDWLCETAAKDNKLMAITPAMREGSGMVEFSRKFPDRYFDVAIAEQHAVTFAAGLAIGGYKPIVAIYSTFLQRAYDQVLHDVAIQKLPVLFAIDRAGIVGADGQTHQGAFDLSYLRCIPEMVIMTPSDENECRQMLYTGYHYNDGPSAVRYPRGNAVGVELTPLEKLPIGKGIVKRRGEKLAILNFGTLMPEAAKVAESLNATLVDMRFVKPLDEALILEMAASHEALVTVEENAIMGGAGSGVNEVLMAHRKPVPVLNIGLPDFFIPQGTQEEMRAELGLDAAGMEAKIKAWLA | 5.82 ± 0.5 | 6.08 ± 0.29 | 5.79 ± 0.18 | 5.92 ± 0.57 | 5.36 ± 0.085 | 3.01 ± 0.11 | 6.16 ± 0.82 | 10.7 ± 1.4 | 5.82 ± 0.11 | 13.6 ± 0.63 | 6.55 ± 0.58 | 12.6 ± 0.56
4 | MSFDLIIKNGTVILENEARVVDIAVKGGKIAAIGQDLGDAKEVMDASGLVVSPGMVDAHTHISEPGRSHWEGYETGTRAAAKGGITTMIEMPLNQLPATVDRASIELKFDAAKGKLTIDAAQLGGLVSYNIDRLHELDEVGVVGFKCFVATCGDRGIDNDFRDVNDWQFFKGAQKLGELGQPVLVHCENALICDELGEEAKREGRVTAHDYVASRPVFTEVEAIRRVLYLAKVAGCRLHVCHVSSPEGVEEVTRARQEGQDVTCESCPHYFVLDTDQFEEIGTLAKCSPPIRDLENQKGMWEKLFNGEIDCLVSDHSPCPPEMKAGNIMKAWGGIAGLQSCMDVMFDEAVQKRGMSLPMFGKLMATNAADIFGLQQKGRIAPGKDADFVFIQPNSSYVLTNDDLEYRHKVSPYVGRTIGARITKTILRGDVIYDIEQGFPVAPKGQFILKHQQ | 4.05 | – | – | 3.35 | – | 1.23 ± 0.55 | 2.5 ± 0.8 | 2.38 ± 0.29 | – | – | – | 5.33
5 | MSFELPALPYAKDALAPHISAETIEYHYGKHHQTYVTNLNNLIKGTAFEGKSLEEIIRSSEGGVFNNAAQVWNHTFYWNCLAPNAGGEPTGKVAEAIAASFGSFADFKAQFTDAAIKNFGSGWTWLVKNSDGKLAIVSTSNAGTPLTTDATPLLTVDVWEHAYYIDYRNARPGYLEHFWALVNWEFVAKNLAA [P0AGD3] | 5.3 ± 0.47 | 5.56 ± 1.2 | 4.773 ± 0.02 | 6.2 ± 1.1 | 4.8 ± 0.58 | 3.18 ± 0.084 | 5.96 ± 0.084 | 11.6 ± 0.35 | 5.07 ± 0.39 | 9.76 ± 0.58 | 5.95 ± 0.27 | 12 ± 0.36
6 | MSFFHASQRDALNQSLAEVQGQINVSFEFFPPRTSEMEQTLWNSIDRLSSLKPKFVSVTYGANSGERDRTHSIIKGIKDRTGLEAAPHLTCIDATPDELRTIARDYWNNGIRHIVALRGDLPPGSGKPEMYASDLVTLLKEVADFDISVAAYPEVHPEAKSAQADLLNLKRKVDAGANRAITQFFFDVESYLRFRDRCVSAGIDVEIIPGILPVSNFKQAKKFADMTNVRIPAWMAQMFDGLDDDAETRKLVGANIAMDMVKILSREGVKDFHFYTLNRAEMSYAICHTLGVRPGL [P0AEZ1] | 3.64 ± 0.65 | 3.18 ± 0.53 | 2.96 ± 0.52 | 3.54 ± 0.14 | 3.16 ± 0.31 | 2.99 ± 0.18 | 4.97 ± 0.25 | 8.59 ± 0.26 | 3.02 ± 0.1 | 4.47 ± 0.053 | 5.51 ± 0.12 | 10.7 ± 0.34
7 | MSFMVSEEVTVKEGGPRMIVTGYSSGMVECRWYDGYGVKREAFHETELVPGEGSRSAEEV | 5.18 | 0.609 ± 0.66 | – | – | – | 0.36 | 0.469 | – | – | – | – | –
8 | MSFSEFYQRSINEPEQFWAEQARRIDWQTPFTQTLDHSNPPFARWFCEGRTNLCHNAIDRWLEKQPEALALIAVSSETEEERTFTFRQLHDEVNAVASMLRSLGVQRGDRVLVYMPMIAEAHITLLACARIGAIHSVVFGGFASHSVAARIDDAKPVLIVSADAGARGGKIIPYKKLLDDAISQAQHQPRHVLLVDRGLAKMARVSGRDVDFASLRHQHIGARVPVAWLESNETSCILYTSGTTGKPKGVQRDVGGYAVALATSMDTIFGGKAGSVFFCASDIGWVVGHSYIVYAPLLAGMATIVYEGLPTWPDCGVWWTIVEKYQVSRMFSAPTAIRVLKKFPTAEIRKHDLSSLEVLYLAGEPLDEPTASWVSNTLDVPVIDNYWQTESGWPIMAIARGLDDRPTRLGSPGVPMYGYNVQLLNEVTGEPCGVNEKGMLVVEGPLPPGCIQTIWGDDGRFVKTYWSLFSRPVYATFDWGIRDADGYHFILGRTDDVINVAGHRLGTREIEESISSHPGVAEVAVVGVKDALKGQVAVAFVIPKESDSLEDRDVAHSQEKAIMALVDSQIGNFGRPAHVWFVSQLPKTRSGKMLRRTIQAICEGRDPGDLTTIDDPASLDQIRQAMEE | – | – | – | – | – | – | 0.366 ± 0.12 | 0.611 | – | – | – | –
9 | MSFWKVAAAQYEPRKTSLTEQVAHHLEFVRAAARQQCQLLVFPSLSLLGCDYSRRALPAPPDLSLLDPLCYAATTWRMTIIAGLPVEYNDRFIRGIAVFAPWRKTPGIYHQSHGACLGRRSRTITVVDEQPQGMDMDPTCSLFTTGQCLGEPDLLASARRLQFFSHQYSIAVLMANARGNSALWDEYGRLIVRADRGSLLLVGQRSSQGWQGDIIPLR | 5.47 | – | – | – | – | – | – | – | – | – | – | –
